The record followed here is patent publication US20150344587A1.

Experiment [1] concerns the target CD20 (UniProt P11836). Put plainly: binding to CD20 after 37° C. for 3 days; method not stated.
The target of experiment [2] is CD20 (UniProt P11836). Put plainly: binding to CD20 after 37° C. for 7 days; method not stated.

On to (Fucα1,6)GlcNAc-Rituximab (antibody), for which the loss of binding affinity in experiment [1] is 10%; in experiment [2], 20%.
